Laboratory results: the supplement of paper PMC10567573

B1: HDAC6 (parent)
chain: QYMNEGELRVLADTYDSVYLHPNS
B2: VAMP4 (parent)
chain: FLRGPSGPRFGPRNDKIKHVQNQV

Variants of: B1
Experiment: protein stability index of a GFP-peptide fusion (GPS, HEK-293T) (PSI 1-6); higher = more stable
Details: c terminus: a fixed tail appended
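Note: lentivirally expressed fusions sorted by FACS into six bins by GFP to DsRed ratio, PSI derived from sequencing read proportions per bin multiplied by bin number.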

Protein stability index of substitutions, site by site:
G6: K 2.06; H 1.63; D 1.89; T 1.85; F 2.94; S 1.98; R 2.03; E 2.19; L 2.51; Y 2.5; V 1.97; Q 1.91; I 1.72; N 2.18; C 2.26; P 3.01; W 1.88; M 1.6; A 3.02
T14: V 1.5; P 2.53; S 2.04; H 2.73; N 2.36; Y 2.92; E 2.2; C 2.54; R 2.51; A 2.1; D 2.84; K 1.76; L 1.28; Q 3.12; F 1.73; W 1.43
L11: I 1.78; V 2.25; H 3.13; Q 2.32; W 2.64; E 2.36; R 2.61; K 3.03; C 1.95; A 1.83; G 2.46; F 2.01; T 2; S 1.76; P 3.49; M 2.98; Y 2.14; N 2.32; D 3.01
R9: L 1.6; A 1.76; V 4.11; M 1.46; I 2.13; Y 1.87; H 3.19; T 2.14; N 2.67; F 3.31; C 1.48; P 3.26; W 1.23; G 2.18; S 2.05; K 1.69; Q 2.65; D 2; E 2.7
V10: D 3.61; S 2.81; L 1.66; T 2.18; H 2.31; E 2.46; A 1.79; M 2.08; F 2.69; N 2.15; Y 2.95; I 1.84; C 2.51; R 1.92; W 2.22; G 3.15; P 3.53; K 2.01; Q 3.27
E7: F 2.46; P 2.64; S 2.04; R 1.55; T 2.62; Q 1.66; I 1.81; V 1.5; A 1.96; D 2.04; H 2.26; L 2.69; N 1.72; Y 1.44; M 2.81; G 3.04; K 1.76; W 1.72
Q1: D 3.16; S 2.04; G 1.89; R 1.43; A 1.69; W 2.21; M 1.66; K 1.92; I 1.83; P 2.63; Y 1.69; T 1.84; E 1.93; C 1.52; F 2.53
Y15: P 1.9; R 3.05; S 3.18; I 1.81; G 2.6; K 3.46; Q 2.95; N 2.65; A 2.75; F 1.83; E 3.18; C 2.46; M 2.79; H 3.13; L 2.69; D 3.86
M3: H 3.64; D 4.19; L 2.38; P 4.02; S 3.23; E 3.88; Q 3.73; T 2.99; R 3.65; N 3.41; F 2.15; Y 2.56; V 3.46; I 3.39; C 3.07; A 3.17; K 3.39; W 2.29
E5: G 2.85; N 3.15; L 2.12; V 1.21; M 1.8; D 1.88; C 1.96; Y 2.03; T 2.02; K 1.9; S 1.92; F 1.72; H 2.91; P 2.57; A 2.95
Y2: G 3.27; V 3.27; T 2.9; E 2.9; S 2.71; W 2.11; Q 2.47; K 3.46; I 1.94; P 4.32; L 2.68; N 4.07; H 2.13; A 1.43; F 2.2; M 1.73; D 3.19; R 3.3
N4: T 2.16; V 1.68; S 2.05; F 1.21; D 1.61; K 2.2; E 3.02; P 2.81; I 2.49; C 2.08; Q 2.19; M 2.76; G 1.89; Y 1.93; H 2.23; A 1.8; L 1.55; R 2.97
D13: G 2.86; T 2.08; V 1.97; H 1.77; F 3.63; C 1.2; I 2.2; S 1.9; R 1.27; Q 1.57; W 1.37; K 1.16; E 1.6; L 1.45; P 1.94; N 2.23
A12: I 2.73; V 1.09; M 3.21; Q 2.04; G 1.68; N 1.92; R 2.31; P 3.17; D 1.57; F 2.89; H 2.31; K 1.98; L 2.58; Y 2.1; E 2.36; S 2.58; T 2.54; W 1.02
L8: E 3.51; M 1.85; Q 2.66; P 3.84; H 2.45; Y 2.96; K 3; W 1.33; G 3.36; V 3.68; R 2.94; I 2.86; A 2.53; F 1.52; T 2.19; N 2.62; D 2.7; S 2.55; C 2.33

Variants of: B2
Experiment: as above
Details: c terminus: a fixed tail appended

Protein stability index, by site and new letter:
Q21: W 1.41; F 2.42; P 2.91; Y 2.11; C 1.68; L 1.75; H 3.2; G 2.55; K 2.81; M 1.85; V 2.83; N 3.59; T 2.29; S 2.47; D 2.93
V24: C 2.22; K 3.46; H 3.18; T 3.08; Y 3; E 2.89; L 2.67; S 2.9; N 3.49; P 2.94; A 2.85; Q 2.76; M 3.02; W 2.82; F 2.53; I 2.6; D 3.4; R 3
N22: T 3.02; R 2.25; V 1.74; W 1.42; S 3.25; F 1.68; M 1.57; C 2.56; H 2.18; Y 2.14; K 2.88; Q 2.48; G 2.77; A 2.58; I 1.51; E 3.94; P 2.53; L 2.27; D 3.48
Q23: V 2.6; L 2.81; E 3.39; G 1.8; R 2.87; P 3.04; D 3.04; W 1.84; I 2.14; C 2.23; K 2.22; S 2.54; H 2.55; N 2.98; A 2.81; M 2.2
V20: W 2.25; Y 2.46; T 2.87
